B1: XacGalD, GH35 β-galactosidase encoded by XAC1772 of Xanthomonas citri pv. citri 306, wild type (enzyme)
chain: not shown
notes: source: E. coli, purified (two chromatographic steps)
B2: XacAfc95, GH95 α-1,2-L-fucosidase encoded by XAC1774 of Xanthomonas citri pv. citri 306 (enzyme)
chain: not shown
notes: A signal peptide was probably left out of the construct (surmise); also called GH95 α-L-fucosidase; source: E. coli, purified (two chromatographic steps)

Experiments:
[1] = target: the molecule itself; experiment: SEC-MALS; 25 °C; Superdex 200 HR 10/300 GL; 250 μL of protein at 50 μmol L^-1 injected; 20 mmol L^-1 HEPES pH 7.5, 150 mmol L^-1 NaCl
[2] = target: the molecule itself; experiment: SAXS; protein samples at 1, 3, 5 and 10 mg mL^-1; D01A-SAXS2 beamline (LNLS); molecular weight by SAXSMoW

Protein | stoichiometry N [1] | stoichiometry N [2]
B1 | 4 | 
B2 |  | 2
